Data reported in the supplement of paper PMC9112550, “Optimization of the antimicrobial peptide Bac7 by deep mutational scanning” (BMC Biology, 2022).

These sequences were tested on Escherichia coli TOP10 (assay: shrunken log2 fold change of peptide-encoding DNA abundance (4.5 h post-induction vs induction); higher = less antimicrobial activity (less host growth inhibition)). Settings: time post-induction: 4.5 h; library: site-saturation at positions 5, 18, 19, 20.
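Also: peptides expressed intracellularly from a pBAD plasmid library in pooled LB shake-flask culture, induced with 0.3% L-arabinose, DNA abundance read by NGS, three biological replicates, DESeq2 with apeglm shrinkage.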

Sequence	shrunken log2 fold change
RRIRWRPPRLPRPRPRPHEGPRP	-0.102
RRIRWRPPRLPRPRPRPHFGPRP	0.168
RRIRWRPPRLPRPRPRPHFIPRP	-0.349
RRIRWRPPRLPRPRPRPHGKPRP	0.00196
RRIRWRPPRLPRPRPRPHHAPRP	-0.0735
RRIRWRPPRLPRPRPRPHKAPRP	-0.000946
RRIRWRPPRLPRPRPRPHKPPRP	-0.119
RRIRWRPPRLPRPRPRPHLIPRP	0.172
RRIRWRPPRLPRPRPRPHNHPRP	-0.707
RRIRWRPPRLPRPRPRPHNKPRP	-0.39
RRIRWRPPRLPRPRPRPHNSPRP	-0.394
RRIRWRPPRLPRPRPRPHPIPRP	0.062
RRIRWRPPRLPRPRPRPHQGPRP	0.0993
RRIRWRPPRLPRPRPRPHQWPRP	-0.0271
RRIRWRPPRLPRPRPRPHRDPRP	-0.215
RRIRWRPPRLPRPRPRPHRIPRP	-0.225
RRIRWRPPRLPRPRPRPHTNPRP	-0.283
RRIRWRPPRLPRPRPRPHWQPRP	-0.00204
RRIRWRPPRLPRPRPRPIAMPRP	0.256
RRIRWRPPRLPRPRPRPIDCPRP	0.0353
RRIRWRPPRLPRPRPRPIDEPRP	0.0867
RRIRWRPPRLPRPRPRPIEEPRP	0.0406
RRIRWRPPRLPRPRPRPIFCPRP	0.067
RRIRWRPPRLPRPRPRPIHAPRP	0.0364
RRIRWRPPRLPRPRPRPIITPRP	-0.827

Sequence	shrunken log2 fold change
RRIRWRPPRLPRPRPRPILHPRP	0.0591
RRIRWRPPRLPRPRPRPILSPRP	-0.422
RRIRWRPPRLPRPRPRPINDPRP	-0.222
RRIRWRPPRLPRPRPRPIPQPRP	0.254
RRIRWRPPRLPRPRPRPIPRPRP	0.0469
RRIRWRPPRLPRPRPRPIQNPRP	-0.394
RRIRWRPPRLPRPRPRPIQPPRP	0.0851
RRIRWRPPRLPRPRPRPISCPRP	-0.0467
RRIRWRPPRLPRPRPRPISRPRP	-0.116
RRIRWRPPRLPRPRPRPITVPRP	-0.0559
RRIRWRPPRLPRPRPRPIVQPRP	0.0969
RRIRWRPPRLPRPRPRPIVSPRP	-0.000687
RRIRWRPPRLPRPRPRPIWLPRP	0.211
RRIRWRPPRLPRPRPRPIYSPRP	-0.0292
RRIRWRPPRLPRPRPRPKADPRP	0.353
RRIRWRPPRLPRPRPRPKALPRP	0.237
RRIRWRPPRLPRPRPRPKDAPRP	0.362
RRIRWRPPRLPRPRPRPKDIPRP	-0.0886
RRIRWRPPRLPRPRPRPKEEPRP	1.07
RRIRWRPPRLPRPRPRPKFAPRP	0.453
RRIRWRPPRLPRPRPRPKFDPRP	-0.0572
RRIRWRPPRLPRPRPRPKFNPRP	-0.434
RRIRWRPPRLPRPRPRPKFVPRP	0.295
RRIRWRPPRLPRPRPRPKGMPRP	-0.159
RRIRWRPPRLPRPRPRPKGVPRP	0.109

Sequence	shrunken log2 fold change
RRIRWRPPRLPRPRPRPKHQPRP	0.195
RRIRWRPPRLPRPRPRPKHTPRP	0.578
RRIRWRPPRLPRPRPRPKIIPRP	-0.0886
RRIRWRPPRLPRPRPRPKIYPRP	-0.0902
RRIRWRPPRLPRPRPRPKLLPRP	0.336
RRIRWRPPRLPRPRPRPKMQPRP	0.329
RRIRWRPPRLPRPRPRPKMSPRP	0.163
RRIRWRPPRLPRPRPRPKNDPRP	0.0313
RRIRWRPPRLPRPRPRPKNLPRP	0.0793
RRIRWRPPRLPRPRPRPKQSPRP	0.698
RRIRWRPPRLPRPRPRPKRRPRP	0.0884
RRIRWRPPRLPRPRPRPKSDPRP	0.473
RRIRWRPPRLPRPRPRPKSHPRP	0.249
RRIRWRPPRLPRPRPRPKSKPRP	0.194
RRIRWRPPRLPRPRPRPKTIPRP	0.118
RRIRWRPPRLPRPRPRPKTMPRP	0.35
RRIRWRPPRLPRPRPRPKVNPRP	0.175
RRIRWRPPRLPRPRPRPKWAPRP	0.507
RRIRWRPPRLPRPRPRPKWQPRP	0.0119
RRIRWRPPRLPRPRPRPKYQPRP	-0.231
RRIRWRPPRLPRPRPRPLAEPRP	1.13
RRIRWRPPRLPRPRPRPLDKPRP	0.352
RRIRWRPPRLPRPRPRPLDYPRP	-0.314
RRIRWRPPRLPRPRPRPLECPRP	0.0173
RRIRWRPPRLPRPRPRPLHNPRP	-0.116

Sequence	shrunken log2 fold change
RRIRWRPPRLPRPRPRPLIHPRP	-0.0681
RRIRWRPPRLPRPRPRPLKGPRP	0.0212
RRIRWRPPRLPRPRPRPLKKPRP	0.0518
RRIRWRPPRLPRPRPRPLKVPRP	-0.496
RRIRWRPPRLPRPRPRPLLFPRP	-0.0366
RRIRWRPPRLPRPRPRPLLRPRP	0.325
RRIRWRPPRLPRPRPRPLLWPRP	0.571
RRIRWRPPRLPRPRPRPLMIPRP	-0.304
RRIRWRPPRLPRPRPRPLMSPRP	-0.0663
RRIRWRPPRLPRPRPRPLNFPRP	-0.323
RRIRWRPPRLPRPRPRPLNRPRP	-0.274
RRIRWRPPRLPRPRPRPLPGPRP	0.215
RRIRWRPPRLPRPRPRPLTSPRP	-0.101
RRIRWRPPRLPRPRPRPLTYPRP	-0.423
RRIRWRPPRLPRPRPRPLVFPRP	0.0454
RRIRWRPPRLPRPRPRPLWQPRP	0.156
RRIRWRPPRLPRPRPRPLWYPRP	-0.225
RRIRWRPPRLPRPRPRPLYSPRP	-0.247
RRIRWRPPRLPRPRPRPMAEPRP	0.203
RRIRWRPPRLPRPRPRPMCDPRP	0.116
RRIRWRPPRLPRPRPRPMCQPRP	0.132
RRIRWRPPRLPRPRPRPMDGPRP	0.309
RRIRWRPPRLPRPRPRPMEFPRP	-0.145
RRIRWRPPRLPRPRPRPMFMPRP	-0.209
RRIRWRPPRLPRPRPRPMGSPRP	-0.0192

Sequence	shrunken log2 fold change
RRIRWRPPRLPRPRPRPMIPPRP	0.0901
RRIRWRPPRLPRPRPRPMKDPRP	-0.141
RRIRWRPPRLPRPRPRPMKLPRP	-0.198
RRIRWRPPRLPRPRPRPMKTPRP	-0.0156
RRIRWRPPRLPRPRPRPMLDPRP	0.426
RRIRWRPPRLPRPRPRPMMAPRP	0.452
RRIRWRPPRLPRPRPRPMMFPRP	-0.117
RRIRWRPPRLPRPRPRPMNCPRP	0.0143
RRIRWRPPRLPRPRPRPMNKPRP	-0.267
RRIRWRPPRLPRPRPRPMNNPRP	-0.606
RRIRWRPPRLPRPRPRPMNQPRP	-0.33
RRIRWRPPRLPRPRPRPMQGPRP	0.00185
RRIRWRPPRLPRPRPRPMSFPRP	0.00806
RRIRWRPPRLPRPRPRPMSLPRP	-0.0247
RRIRWRPPRLPRPRPRPMSVPRP	0.0691
RRIRWRPPRLPRPRPRPMTYPRP	-0.289
RRIRWRPPRLPRPRPRPMVNPRP	-0.0548
RRIRWRPPRLPRPRPRPMVTPRP	-0.072
RRIRWRPPRLPRPRPRPMWFPRP	-0.487
RRIRWRPPRLPRPRPRPMWPPRP	0.214
RRIRWRPPRLPRPRPRPMYFPRP	-0.555
RRIRWRPPRLPRPRPRPMYVPRP	-0.0461
RRIRWRPPRLPRPRPRPNAIPRP	-0.123
RRIRWRPPRLPRPRPRPNAPPRP	0.328
RRIRWRPPRLPRPRPRPNASPRP	0.267

Sequence	shrunken log2 fold change
RRIRWRPPRLPRPRPRPNCDPRP	0.14
RRIRWRPPRLPRPRPRPNCWPRP	0.533
RRIRWRPPRLPRPRPRPNDWPRP	0.00443
RRIRWRPPRLPRPRPRPNEVPRP	0.0902
RRIRWRPPRLPRPRPRPNHLPRP	-0.281
RRIRWRPPRLPRPRPRPNIPPRP	-0.476
RRIRWRPPRLPRPRPRPNKKPRP	-0.076
RRIRWRPPRLPRPRPRPNKTPRP	0.0629
RRIRWRPPRLPRPRPRPNMVPRP	-0.0148
RRIRWRPPRLPRPRPRPNMYPRP	-0.436
RRIRWRPPRLPRPRPRPNNTPRP	-0.587
RRIRWRPPRLPRPRPRPNNVPRP	-0.207
RRIRWRPPRLPRPRPRPNQIPRP	-0.189
RRIRWRPPRLPRPRPRPNQLPRP	-0.208
RRIRWRPPRLPRPRPRPNSYPRP	-0.197
RRIRWRPPRLPRPRPRPNTPPRP	0.144
RRIRWRPPRLPRPRPRPNWCPRP	-0.0188
RRIRWRPPRLPRPRPRPNYCPRP	-0.113
RRIRWRPPRLPRPRPRPNYHPRP	-0.486
RRIRWRPPRLPRPRPRPNYNPRP	-0.752
RRIRWRPPRLPRPRPRPNYPPRP	-0.157
RRIRWRPPRLPRPRPRPPAPPRP	1.03
RRIRWRPPRLPRPRPRPPEGPRP	0.163
RRIRWRPPRLPRPRPRPPFFPRP	0.224
RRIRWRPPRLPRPRPRPPGVPRP	0.525
